# Earlier results, collected in paper PMC12703448.
# Biological target: PDE6D (Homo sapiens) (UniProt O43924)
# Sequence (O43924 whole entry): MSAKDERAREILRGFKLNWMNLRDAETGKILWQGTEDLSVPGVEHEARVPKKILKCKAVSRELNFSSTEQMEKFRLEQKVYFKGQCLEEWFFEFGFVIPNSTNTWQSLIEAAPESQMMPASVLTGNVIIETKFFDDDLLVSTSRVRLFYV
# INPP5E, sequence (Q9NRR6 1-641): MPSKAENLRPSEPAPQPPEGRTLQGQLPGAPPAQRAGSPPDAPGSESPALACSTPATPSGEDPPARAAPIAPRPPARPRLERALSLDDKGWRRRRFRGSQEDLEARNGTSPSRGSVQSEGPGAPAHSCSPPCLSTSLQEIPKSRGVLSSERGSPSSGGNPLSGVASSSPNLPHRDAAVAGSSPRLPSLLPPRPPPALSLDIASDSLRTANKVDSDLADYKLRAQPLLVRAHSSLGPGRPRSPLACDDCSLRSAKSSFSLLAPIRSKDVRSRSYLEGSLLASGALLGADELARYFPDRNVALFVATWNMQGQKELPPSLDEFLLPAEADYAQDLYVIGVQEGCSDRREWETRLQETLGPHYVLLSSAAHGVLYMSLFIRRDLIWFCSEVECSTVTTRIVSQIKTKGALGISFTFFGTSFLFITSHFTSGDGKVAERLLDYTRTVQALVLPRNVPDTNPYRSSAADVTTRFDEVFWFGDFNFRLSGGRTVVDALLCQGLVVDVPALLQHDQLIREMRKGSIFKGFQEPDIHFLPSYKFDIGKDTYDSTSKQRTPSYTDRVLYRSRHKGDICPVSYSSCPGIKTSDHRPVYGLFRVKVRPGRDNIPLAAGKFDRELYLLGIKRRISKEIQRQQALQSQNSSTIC
substance,measurement,value
INPP5E (from UniProt Q9NRR6),Kd,4 nM
